From paper PMC2279226

Tests used:
[1] = target: H3 (K9, 14, 18, 23) tetra-acetylated nucleosome (Xenopus laevis)
[2] = target: H3 (K9, 14, 18, 23) tetra-acetylated nucleosome (Xenopus laevis); remark: listed apart in the source

Km for nucleosomes of ATP hydrolysis by RSC (real-time MDCC-PBP ATPase assay, 0.3 nM RSC, 36W36 nucleosomes), against the unmodified control [1]: 3 fold lower
initial rate of nucleosome repositioning by RSC relative to the unmodified S28C control (competitive sliding assay, 54A18 DNA, 30 °C, 1 mM ATP) [2]: 16 fold
Substance: RSC complex (from UniProt Q02206 1-625)
